{"source": "paper PMC5867032", "about": "“Interactions of WRKY15 and WRKY33 transcription factors and their roles in the resistance of oilseed rape to Sclerotinia infection”", "binders": {"B1": {"name": "3x third W-box (W3) (dsDNA)", "DNA 1": "CAACGGTCAAACTTCAACGGTCAAACTTCAACGGTCAAACTT", "DNA 2": "AAGTTTGACCGTTGAAGTTTGACCGTTGAAGTTTGACCGTTG"}, "B2": {"name": "33probe (WT) (dsDNA)", "DNA 1": "TCAAAGTCAAGGACACATGGTCTGACCATCTCCTCTCCTCCTCTTCTTCTCCATCTTCTAATTTTTTCAACGGTCAAACTT", "DNA 2": "AAGTTTGACCGTTGAAAAAATTAGAAGATGGAGAAGAAGAGGAGGAGAGGAGATGGTCAGACCATGTGTCCTTGACTTTGA"}, "B3": {"name": "W1m3 probe (dsDNA)", "DNA 1": "TCAAAGGCAAGGACACATGGTCTGACCATCTCCTCTCCTCCTCTTCTTCTCCATCTTCTAATTTTTTCAACGGTCAAACTT", "DNA 2": "AAGTTTGACCGTTGAAAAAATTAGAAGATGGAGAAGAAGAGGAGGAGAGGAGATGGTCAGACCATGTGTCCTTGCCTTTGA"}, "B4": {"name": "W1m1 probe (dsDNA)", "DNA 1": "TCAAAGTCTAGGACACATGGTCTGACCATCTCCTCTCCTCCTCTTCTTCTCCATCTTCTAATTTTTTCAACGGTCAAACTT", "DNA 2": "AAGTTTGACCGTTGAAAAAATTAGAAGATGGAGAAGAAGAGGAGGAGAGGAGATGGTCAGACCATGTGTCCTAGACTTTGA"}, "B5": {"name": "W1m4 probe (dsDNA)", "DNA 1": "TCAAAATCAAGGACACATGGTCTGACCATCTCCTCTCCTCCTCTTCTTCTCCATCTTCTAATTTTTTCAACGGTCAAACTT", "DNA 2": "AAGTTTGACCGTTGAAAAAATTAGAAGATGGAGAAGAAGAGGAGGAGAGGAGATGGTCAGACCATGTGTCCTTGATTTTGA"}, "B6": {"name": "W1m5 probe (dsDNA)", "DNA 1": "TCAACCCGGGGGACACATGGTCTGACCATCTCCTCTCCTCCTCTTCTTCTCCATCTTCTAATTTTTTCAACGGTCAAACTT", "DNA 2": "AAGTTTGACCGTTGAAAAAATTAGAAGATGGAGAAGAAGAGGAGGAGAGGAGATGGTCAGACCATGTGTCCCCCGGGTTGA"}, "B7": {"name": "W1m2 probe (dsDNA)", "DNA 1": "TCAAAGTGAAGGACACATGGTCTGACCATCTCCTCTCCTCCTCTTCTTCTCCATCTTCTAATTTTTTCAACGGTCAAACTT", "DNA 2": "AAGTTTGACCGTTGAAAAAATTAGAAGATGGAGAAGAAGAGGAGGAGAGGAGATGGTCAGACCATGTGTCCTTCACTTTGA"}, "B8": {"name": "W-box probe (Fig 12b) (dsDNA)", "DNA 1": "TCAAAGTCAAGGACACATGGTCTGACCATCTCCTCTCCTCCTCTTCTTCTCCATCTTCTAATTTTTTCAACGGTCAAACTT", "DNA 2": "AAGTTTGACCGTTGAAAAAATTAGAAGATGGAGAAGAAGAGGAGGAGAGGAGATGGTCAGACCATGTGTCCTTGACTTTGA"}, "B9": {"name": "3x second W-box (W2) (dsDNA)", "DNA 1": "TGGTCTGACCATCTTGGTCTGACCATCTTGGTCTGACCATCT", "DNA 2": "AGATGGTCAGACCAAGATGGTCAGACCAAGATGGTCAGACCA"}, "B10": {"name": "3x first W-box (W1) (dsDNA)", "DNA 1": "TCAAAGTCAAGGACTCAAAGTCAAGGACTCAAAGTCAAGGAC", "DNA 2": "GTCCTTGACTTTGAGTCCTTGACTTTGAGTCCTTGACTTTGA"}, "B11": {"name": "GCC-box (dsDNA)", "DNA 1": "CATAAGAGCCGCCACT", "DNA 2": "AGTGGCGGCTCTTATG"}, "B12": {"name": "Mt probe (three W-boxes mutated) (dsDNA)", "DNA 1": "TCAACCCGGGGGACACATGGTCCCGGGATCTCCTCTCCTCCTCTTCTTCTCCATCTTCTAATTTTTTCAACCCCGGGACTT", "DNA 2": "AAGTCCCGGGGTTGAAAAAATTAGAAGATGGAGAAGAAGAGGAGGAGAGGAGATCCCGGGACCATGTGTCCCCCGGGTTGA"}}, "key": {"[1]": {"target": "T1, BnWRKY15 (Brassica napus, UniProt A0A291B474 1-319)", "T1 sequence (A0A291B474 entry or part of it)": "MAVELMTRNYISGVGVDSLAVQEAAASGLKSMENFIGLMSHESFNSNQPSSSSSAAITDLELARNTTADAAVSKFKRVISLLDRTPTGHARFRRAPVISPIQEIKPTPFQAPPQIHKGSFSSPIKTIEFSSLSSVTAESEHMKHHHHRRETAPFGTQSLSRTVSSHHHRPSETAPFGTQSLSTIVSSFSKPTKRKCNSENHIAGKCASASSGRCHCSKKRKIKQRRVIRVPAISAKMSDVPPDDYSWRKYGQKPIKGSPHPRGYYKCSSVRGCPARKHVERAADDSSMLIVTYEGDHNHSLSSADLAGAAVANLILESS", "assay": "EMSA; Beyotime EMSA binding buffer (composition, pH not stated), 40 nM Cy5 DNA probe, room temperature; 6% native PAGE in ice water bath", "conditions": "protein: recombinant; tags: 6xHis (pET-32a fusion); label: Cy5"}, "[2]": {"target": "T1, BnWRKY15", "assay": "EMSA; competed by unlabelled 33probe (12.5x, 25x); Beyotime EMSA binding buffer (composition, pH not stated), 40 nM Cy5 DNA probe, room temperature; 6% native PAGE in ice water bath", "conditions": "protein: recombinant; tags: 6xHis (pET-32a fusion); label: Cy5"}, "[3]": {"target": "T1, BnWRKY15", "assay": "EMSA; alone; also outcompetes equal BnWRKY33; Beyotime EMSA binding buffer (composition, pH not stated), 40 nM Cy5 DNA probe, room temperature; 6% native PAGE in ice water bath", "conditions": "protein: recombinant; tags: 6xHis (pET-32a fusion); label: Cy5"}, "[4]": {"target": "T1, BnWRKY15", "assay": "competition; unlabelled competitor against Cy5-33probe; Beyotime EMSA binding buffer (composition, pH not stated), 40 nM Cy5 DNA probe, room temperature; 6% native PAGE in ice water bath", "conditions": "protein: recombinant; tags: 6xHis (pET-32a fusion); label: unlabelled"}}, "data": [{"binder": "B1", "values": [{"measurement": "binding result", "setting": "[1]", "result": "binds"}]}, {"binder": "B2", "values": [{"measurement": "binding result", "setting": "[2]", "result": "binds"}]}, {"binder": "B3", "values": [{"measurement": "binding result", "setting": "[1]", "result": "binds"}]}, {"binder": "B4", "values": [{"measurement": "binding result", "setting": "[1]", "result": "binds"}]}, {"binder": "B5", "values": [{"measurement": "binding result", "setting": "[1]", "result": "binds"}]}, {"binder": "B6", "values": [{"measurement": "binding result", "setting": "[1]", "result": "binds"}]}, {"binder": "B7", "values": [{"measurement": "binding result", "setting": "[1]", "result": "binds"}]}, {"binder": "B8", "values": [{"measurement": "binding result", "setting": "[3]", "result": "binds"}]}, {"binder": "B9", "values": [{"measurement": "binding result", "setting": "[1]", "result": "binds"}]}, {"binder": "B10", "values": [{"measurement": "binding result", "setting": "[1]", "result": "binds"}]}, {"binder": "B11", "values": [{"measurement": "binding result", "setting": "[4]", "result": "no binding"}]}, {"binder": "B12", "values": [{"measurement": "binding result", "setting": "[1]", "result": "no binding"}]}]}
